test: soluble on expression in E. coli; label from the status in PepcDB or PDB records

Q: Which “soluble on expression in E. coli” value does the source give for “MSLEKEAFMEKLLSFMKEEAYKPLTVQELEEMLNITEAEEFKELVKALVALEEKGLIVRTRSDRYGIPEKMNLIKGKISAHAKGFAFLLPEDTSLSDVFIPPNELNTAMNGDIVMVRLNSQSSGSRQEGTVIRILERAIQRVVGTYTETRNFGFVIPDDKKITSDIFIPKNGKNGAAEGHKVVVKLTSYPEGRMNAEGEVETILGHKNDPGIDILSVIHKHGLPGEFPADAMEQASSTPDTIDEKDLKDRRDLRDQVIVTIDGADAKDLDDAVTVTKLDDGSYKLGVHIADVSHYVTENSPIDKEALERGTSVYLVDRVIPMIPHRLSNGICSLNPKVDRLTLSCEMTINSQGQVTEHEIFQSVIKTTERMTYSDVNKILVDDDEELKQKYEPLVPMFKDMERLAQILRDKRMDRGAVDFDFKEAKVLVDDEGAVKDVVIRERSVAEKLIEEFMLVANETVAEHFHWMNVPFIYRIHEEPNAEKLQKFLEFVTTFGYVVKGTAGNIHPRALQSILDAVRDRPEETVISTVMLRSMKQAKYDPQSLGHFGLSTEFYTHFTSPIRRYPDLIVHRLIRTYLINGKVDEATQEKWAERLPDIAEHTSSMERRAVDAERETDDLKKAEYMLDKIGEEFDGMISSVTNFGMFVELPNTIEGLVHVSFMTDDYYRFDEQHFAMIGERTGNVFRIGDEITVKVVDVNKDERNIDFEIVGMKGTPRRPRELDSSRSRKRGKPARKRVQSTNTPVSPAPSEEKGEWFTKPKKKKKKRGFQNAPKQKRKKKKEGHHHHHH” here?
A: Its value is “soluble”.

Q: For “MAHHHHHHMAASYLVLQRYTDLINSGDLDAAFNYLSEDIIYVTWLGVIEGKDNVVTFLRDNMRFLHFAKHFNRWRQVQHCLDADLSRHCDDSDVGGSNLFDRDGYDRQGYASFERDGMIANIVKLSMQKTRVRETVVIRDNKVVLVTLMEQL”, which “soluble on expression in E. coli” value is on record?
A: Its value is “not soluble”.

Q: With “PIKVDGANINITAAIYDEIQQEMKRAKVSQALFAKVAANKSQGWLCELLRWKENPSPENRTLWENLCTIRRFLNLPQHERDVIYEEES” as the sequence, how does the “soluble on expression in E. coli” value read?
A: The value was “soluble”.

Q: With “VGKQLAALAALVGACMLAAGCTNVVDGTAVAADKSGPLHQDPIPVSALEGLLLDLSQINAALGATSMKVWFNAKAMWDWSKSVADKNCLAIDGPAQEKVYAGTGWTAMRGQRLDDSIDDSKKRDHYAIQAVVGFPTAHDAEEFYSSSVQSWSSCSNRRFVEVTPGQDDAAWTVADVVNDNGMLSSSQVQEGGDGWTCQRALTARNNVTIDIVTCAYSQPDLVAIGIANQIAAKVAKQ” as the sequence, how does the “soluble on expression in E. coli” value read?
A: Its value is “not soluble”.

Q: Which “soluble on expression in E. coli” value does the source give for “MSDNAQLTGLCDRFRGFYPVVIDVETAGFNAKTDALLEIAAITLKMDEQGWLMPDTTLHFHVEPFVGANLQPEALAFNGIDPNDPDRGAVSEYEALHEIFKVVRKGIKASGCNRAIMVAHNANFDHSFMMAAAERASLKRNPFHPFATFDTAALAGLALGQTVLSKACQTAGMDFDSTQAHSALYDTERTAVLFCEIVNRWKRLGGWPLPAAEEV” here?
A: Its value is “not soluble”.

Q: For “SGCRCCKIIQSYLFDPVQVPSPGYVNEVNSCKLDEDDTDKLKGKWSSEVLVQKNDPQRQGSKKTESSSRTADPWEPCWPHQGPLPQGDAGGEHHACGVNGIGPAATPQPTGNSSPTQDDRGSWASTANTVPPTQPFLEGGGTRKQDCVLLASEGTQVMRNGDSRAPSEAESFALEVQDHVFQIPAPDYLQHWGPAGDNVDHNEKDCVFKNHTEDESLEGIQPPVGEHGLNTPFSVRRSWDSLNEDVETEVLSICFNEKGPVHAMPVVDSGNRQEDTHGSDGDGDGEIVDEDAAVAEALAALEAATAGEDLDETD”, which “soluble on expression in E. coli” value is on record?
A: The value was “soluble”.

Q: With “MAKKTSSKGKLPPGPTPFPIIGNILQIDAKDISKSLTKFSECYGPVFTVYLGMKPTVVLHGYEAVKEALVDLGEEFAGRGSVPILEKVSKGLGIAFSNAKTWKEMRRFSLMTLRNFGMGKRSIEDRIQEEARCLVEELRKTNASPCDPTFILGCAPCNVICSVIFHNRFDYKDEEFLKLMESLHENVELLGTPWLQVYNNFPALLDYFPGIHKTLLKNADYIKNFIMEKVKEHQKLLDVNNPRDFIDCFLIKMEQENNLEFTLESLVIAVSDLFGAGTETTSTTLRYSLLLLLKHPEVAARVQEEIERVIGRHRSPCMQDRSRMPYTDAVIHEIQRFIDLLPTNLPHAVTRDVRFRNYFIPKGTDIITSLTSVLHDEKAFPNPKVFDPGHFLDESGNFKKSDYFMPFSAGKRMCVGEGLARMELFLFLTSILQNFKLQSLVEPKDLDITAVVNGFVSVPPSYQLCFIPIHHHH” as the sequence, how does the “soluble on expression in E. coli” value read?
A: The value was “soluble”.

Q: With “MGSDKIHHHHHHMKALAIAATGMNAQQTNLEVIANNIANINTTGYKRARAEFSDLLYQVDRTQGVPNRSNASLVPEGVSIGLGVKTTAVRNVHTQGELTSTGNSFDMALTGRGWFQIEGADGGTLYTRAGAFNTNATGQLVTVDGANVIPAITVPTDAVEVIVNKTGQVFARIDGQTNLQTLGQLQIVNFANEAGLAPLGDNLFQETTASGPANAGVPGDPGFATIQQGYLEASNVDPVKEITELISAQRAYEMNSKVIQAADDMASVVSKNIR” as the sequence, how does the “soluble on expression in E. coli” value read?
A: The value was “not soluble”.

Q: With “MVITLPKLKYALNALSPHISEETLNFHYNKHHAGYVNKLNTLIKDTPFAEKSLLDIVKESSGAIFNNAAQIWNHTFYWDSMGPDCGGEPHGEIKEKIQEDFGSFNNFKEQFSNILCGHFGSGWGWLALNNNNKLVILQTHDAGNPIKDNTGIPILTCDIWEHAYYIDYRNDRASYVKAWWNLVNWNFANENLKKAMQKLEHHHHHH” as the sequence, how does the “soluble on expression in E. coli” value read?
A: Its value is “soluble”.

Q: For “KETVPYQIPYTPSELEELQQNIKLELEGKEQELALELLNYLNEKGFLSKSVEEISDVLRCSVEELEKVRQKVLRLE”, which “soluble on expression in E. coli” value is on record?
A: The value was “soluble”.

Q: For “MGSDKIHHHHHHMMFLPEQISKLNELETLVFDFIIKSPEEVQQMTIRDLASQAHVSTSTIVRLCTKLGFEGWSDLKFYLKNQLKEKTPEEQHYDNMLEFNMFLRRMNTDNYQAKLNNAAQMIAKADYTVFLGLGTSGSLSEYATKYFVNTGLRSFVISDPFQAVQVQGMGNVVAVIMSVSGETEQVVNKELEFKAGGAKIISITNNEDCTVAKLADYQLSYNLVNEWSKQYPLGNLTTQLPVLAILEILAHKSIDYHLKK”, which “soluble on expression in E. coli” value is on record?
A: The value was “not soluble”.

Q: For “MAHHHHHHMLNVLCDIKRYNGFDYYKCPRTILKKTCNFVKRENVADSIFIGNEIEFFIFDKVNFGLDDYDSYLKVYDREAFSCKNGGSGGSAVGSGSHDTTAGVACIACAGHVPPNDDSKKVKKKCGYFATDPYDTSNMIKLRICRILNSLNVHVQKYHHEVSTSQHEISLKYFDAVKNADNLIITKQVIKSTVHNFNRTATFMPKPLVSDNGSGLHCNISLWKDNKNIFFADDPSTFFLSKEAFYFMNGIIKHAKALQAFCNSTMNSYKRLVPGFETCQKLFYSFGSRNAVIRLSMINYSNPSEKRIEFRLPDYANSPHLVLAAIILAGYDGIKSKEQPLVPFESKDNNFFISSIFSNYVENTQNFKTLTHALEGYDTIHDVKKSPEFVNFFTCKEPESICFSLEESLDALEKDHAFLTVDGIFTEVRFVGKCGEAPNTVDTYLPTYPCVLPFVLPICLPHLFSPFFPTAGSH”, which “soluble on expression in E. coli” value is on record?
A: The value was “not soluble”.

Q: With “VLDSFEILKALKSLDLLKNAPAWWWPNALKFEALLGAVLTQNTKFEAVLKSLENLKNAFILENDDEINLKKIAYIEFSKLAECVRPSGFYNQKAKRLIDLSGNILKDFQSFENFKQEVTREWLLDQKGIGKESADAILCYACAKEVMVVDKYSYLFLKKLGIEIEDYDELQHFFEKGVQENLNSALALYENTISLAQLYARFHGKIVEFSKQKLELKL” as the sequence, how does the “soluble on expression in E. coli” value read?
A: Its value is “soluble”.

Q: With “MKAYTKYLTFNTKKRRELIRITDEVKKAVEESEVKEGLCLVSSMHLTSSVIIQDDEEGLHEDIWEWLEKLAPYRPDYKHHRTGEDNGDAHLKNLLTHLQVVLPITNGKLDLGPWQEIFYAEFDGQRPKRVVIKIIGE” as the sequence, how does the “soluble on expression in E. coli” value read?
A: The value was “soluble”.

Q: Which “soluble on expression in E. coli” value does the source give for “MSLTPLTGQDTPALDECVVDAVDVHAFEVPTDGPEGREQDGTLEWDATTLVLVRVHAGGRTGLGYTYGDVSVASFAHSVLGPVVKGRPVSSPPALWELMGARMRNAGRPGVGAMALSAVDVALWDLKARLLGLPLVHLLPAHHDRVPVYGSGGFTNYPLDRLTDQLAGWVRQGIGRVKLKTSRDPEADPRRLTAVRRAVGDGPEVFTDANGALGRKAALYWAHRFHDEWDVRWFEEPVASADLEGLRMLRERGPARLEITAGEYAFTAQDFANLTEGPAVDCLQADVTRCGGVTGVLEVAGLSAARHLDLSAHCAPAVSAHAFCAVRRLRHLEYFHDHVRVERLLFDGVPSPEGGALRPDTSRPGLGLEVRWADAEPYRVRGVRPPREGHHHHHH” here?
A: Its value is “soluble”.

Q: With “MGSDKIHHHHHHMNMAHDEQRWLSPRLQKAAALCNQAPAASESPLWLGIDLGTCDVVSMVVDRDGQPVAVCLDWADVVRDGIVWDFFGAVTLVRRHLATLEQQLGCRFTHAATSFPPGTDPRISINVLESAGLEISHVLDEPTAVADLLQLDNAGVVDIGGGTTGIAIVKQGRVTYSADEATGGHHISLTLAGNRGIGLEEAEQYKRSHAGEIWPVVKPVYEKMAEIVARHIAGQGIVDLWLAGGACMQPGVHELFRQRFPALPVHLPQHSLFMTPLAIANSGREKAEGMYAS” as the sequence, how does the “soluble on expression in E. coli” value read?
A: The value was “not soluble”.

Q: For “MNTDHERWRTEYAGGTAVAYDDKVVLQGDSARLAGLLQDGGGRAHIYFDGASRGNPGPAAIGWVIVTDDGIVAEGSERIGRATNNQAEYEALIEALAAAADYAFDEAVVKGDSQLIVKQVRGEWDTNDPTLREKRVRVRKLLEEFSEWSLDHVPREINDRADDLANEALDGLEHHHHHH”, which “soluble on expression in E. coli” value is on record?
A: Its value is “soluble”.

Q: Which “soluble on expression in E. coli” value does the source give for “MSLEQSDRDRPLADRMRPRTLDEFAGQEHILAPGKPLRVQIDRDDIGSLIFWGPPGVGKTTLAKIIAAMTHADFIEFSAVLSGIKEIKQVMADAERVRQYGTRTILFVDEIHRFNRAQQDAFLPHVERGNIKLIGATTENPSFEVNSALLSRSRVYTLTPLTEEQIVGLLRRALTDTERGLAELHVTAEDIALARIAAYASGDARSGYNVLEVAAQAAGATSERIITEQIVADALQRRVLRYDKSGEEHYNLISALHKSVRNSDPDAALYWLARMIESGEDALYIARRVVRMAVEDIGLADPNALALTLAAKDAIDFLGMPEANLALAQAVVYLSIAPKSNALYTAYGDVQADVEKTAADPVPLHLRNAPTKLMKEIGYGSGYQYAHDLEAKVADMQCLPDNLKDRVYYHPTDQGIEQRIRTRLEEIRREGHHHHHH” here?
A: Its value is “soluble”.

Q: Which “soluble on expression in E. coli” value does the source give for “MNLKQLEVFLAVAESGSFSRGAEATFLTQSTVSQHIAALESEVGVRLLDRTSRGALLTEGGKILLEHARKVVAGSREISKVMRRFRGLEEAELRIGGSTIPADYMIPAMLASFLGRHPGVQVTLLQGDSRDILDRIEREDAEVGIIGSRFDEEGFTFTPLGRDEIRLIAAPDHPLAGTGAVPLAELANHGFVFRELGSGTAKSVAEALAGAGLPAEKLHVRACLGSNEAVKQAVAAGLGLSFVSELSVRKELARGELVELPVEGLTIARTFYLVARTGRELSPPAVAFIGELTGTRLA” here?
A: The value was “not soluble”.

Q: For “MNHYVYILECKDGSWYTGYTTDVDRRIKKHASGKGAKYTRGRGPFRLVATWAFPSKEEAMRWEYEVKHLSRRKKEQLVSLKGGPYENTTKLSTTMAGDPLEHHHHHH”, which “soluble on expression in E. coli” value is on record?
A: Its value is “soluble”.

Q: For “GMNKKTQLLEVIAALPEELVDQALNYVQMLQNPIQITPGVCGGQARIRNTRIPVWTLVAYRQQGAPDKELLANYPGLTAEDLSAAWHYYEQNPEQIDREIAQDDLV”, which “soluble on expression in E. coli” value is on record?
A: Its value is “soluble”.

Q: For “MGSDKIHHHHHHMTSMEFKIKRDGLALQARLETPAAPSSTLVILMHGFTADMGYDTTQFVPQLAQALVAHGLAVLRFDFNGHGCSEGRFQDMTVINEIADAKAVLDEALTLHYDHIVLAGHSQGGVVASMLAGYYPDVVDKLILMAPAATLKSDAQQGVLQGATYDPQHIPAYLNIRDGLKVGGFYLRTAQQLPIYEVAQQYAGSVTLIHVTADTVVSPQASEKYHEVYQHSQLHWVQDGGHRFSGDARATAIQLALAAFK”, which “soluble on expression in E. coli” value is on record?
A: The value was “not soluble”.

Q: Which “soluble on expression in E. coli” value does the source give for “MALDKLLENEAQSEIERIRAEARGRAEKIVADARERAQTLLDSRQRLLENQRQAGLVRARSAADLELNAARLTASESGVTQVYQMVEDYLGNVTSAPEYGNILSRLIQEGLQAVPDAEAIEVNPAEMNVARHLVSGVEVRENPSIKGGVRVVARGGKSGVTNTLSGRLERVKADMAPQISRLLAE” here?
A: The value was “soluble”.

Source: the DeepSol protein solubility set
